Laboratory results: paper doi:10.1101/2025.06.24.661301
Where two headings read alike, the source gives them in different places.

Legend:
Arp2/3 complex (human) [1] = biological target: Arp2/3 complex (human) (UniProt P61158); test: SPR
Arp2/3 complex (human) [2] = biological target: Arp2/3 complex (human) (UniProt P61158); test: SPR; remark: listed apart in the source

Kd (Arp2/3 complex (human) [1]) [µM] | Kd (Arp2/3 complex (human) [2]) [µM] | Substance
48.9 | 14.1 | full-length Arpin (SEC fractions used in SPR) (from UniProt Q7Z6K5-1 1-226) (natural protein)
 | 2.5 | GST-aCT (chimeric protein with Arpin's CT fused to the C-terminus of glutathione S-transferase through the spacer -GSSG-)
 | 63.1 | human Arpin with the double-site alanine substitution F95A/M97A (from UniProt Q7Z6K5-1 1-226) (natural protein)
 | 17.8 | Arpin CT peptide (residues 192-226) (from UniProt Q7Z6K5-1 192-226)
